# Laboratory results as given in patent US20150309050A1.
# No end group written: not given here.
# Legend:
# VT028 antiserum [1] = experiment: RIA standard curve, tracer iodinated PACAP(31-38); 255 pg cold standard
# VT026 antiserum [2] = experiment: as above
# VT027 antiserum [3] = experiment: as above
# VT028 antiserum [4] = experiment: RIA standard curve, tracer iodinated PACAP(31-38); 8 pg cold standard; period in the CPM read as thousands mark
# VT028 antiserum [5] = experiment: RIA standard curve, tracer iodinated PACAP(31-38); 16 pg cold standard; period in the CPM read as thousands mark
# VT028 antiserum [6] = experiment: RIA standard curve, tracer iodinated PACAP(31-38); 2 pg cold standard; period in the CPM read as thousands mark
# VT028 antiserum [7] = experiment: RIA standard curve, tracer iodinated PACAP(31-38); 16 pg cold standard
# VT028 antiserum [8] = experiment: RIA standard curve, tracer iodinated PACAP(31-38); 8 pg cold standard
# VT028 antiserum [9] = experiment: RIA standard curve, tracer iodinated PACAP(31-38); 510 pg cold standard
# VT026 antiserum [10] = experiment: as above
# VT027 antiserum [11] = experiment: as above
# VT026 antiserum [12] = experiment: RIA standard curve, tracer iodinated PACAP(31-38); 2,040 pg cold standard
# VT027 antiserum [13] = experiment: as above
# VT026 antiserum [14] = experiment: competition RIA, tracer iodinated PACAP(31-38); high end tied to VT026 by Table 5 (20.3 fmol)
# VT028 antiserum [15] = experiment: RIA standard curve, tracer iodinated PACAP(31-38); 1 pg cold standard; period in the CPM read as thousands mark
# VT026 antiserum [16] = experiment: competition RIA, antiserum 1:100K, tracer iodinated PACAP(31-38)
# VT028 antiserum [17] = experiment: competition RIA, antiserum 1:200K, tracer iodinated PACAP(31-38)
# VT027 antiserum [18] = experiment: as above
# VT028 antiserum [19] = experiment: RIA standard curve, tracer iodinated PACAP(31-38); 255 pg cold standard; period in the CPM read as thousands mark
# VT028 antiserum [20] = experiment: RIA standard curve, tracer iodinated PACAP(31-38); 54 pg cold standard (so in the source)
# [21] = biological target: PACAP38 RIA antiserum (Peninsula Laboratories); experiment: competition RIA, double antibody immunoprecipitation, antiserum 1:30,000
# VT028 antiserum [22] = experiment: RIA standard curve, tracer iodinated PACAP(31-38); 54 pg cold standard (so in the source); period in the CPM read as thousands mark
# VT028 antiserum [23] = experiment: RIA standard curve, tracer iodinated PACAP(31-38); 1.020 pg cold standard as printed (read as 1,020)
# VT028 antiserum [24] = experiment: RIA standard curve, tracer iodinated PACAP(31-38); 4 pg cold standard; period in the CPM read as thousands mark
# VT026 antiserum [25] = experiment: RIA standard curve, tracer iodinated PACAP(31-38); 1,020 pg cold standard
# VT027 antiserum [26] = experiment: as above
# VT028 antiserum [27] = experiment: RIA standard curve, tracer iodinated PACAP(31-38); 128 pg cold standard
# VT026 antiserum [28] = experiment: as above
# VT027 antiserum [29] = experiment: competition RIA, tracer iodinated PACAP(31-38); low end tied to VT027 by Table 6 (41 pg)
# VT026 antiserum [30] = experiment: RIA standard curve, tracer iodinated PACAP(31-38); 18 pg cold standard (so in the source)
# VT027 antiserum [31] = experiment: as above
# VT027 antiserum [32] = experiment: RIA standard curve, tracer iodinated PACAP(31-38); 125 pg cold standard (so in the source)
# VT028 antiserum [33] = experiment: RIA standard curve, tracer iodinated PACAP(31-38); 2 pg cold standard
# VT026 antiserum [34] = experiment: as above
# VT027 antiserum [35] = experiment: as above
# VT028 antiserum [36] = experiment: RIA standard curve, tracer iodinated PACAP(31-38); 128 pg cold standard; period in the CPM read as thousands mark
# VT028 antiserum [37] = experiment: RIA standard curve, tracer iodinated PACAP(31-38); 510 pg cold standard; period in the CPM read as thousands mark
# VT028 antiserum [38] = experiment: RIA standard curve, tracer iodinated PACAP(31-38); 2.040 pg cold standard as printed (read as 2,040)
# VT026 antiserum [39] = experiment: RIA standard curve, tracer iodinated PACAP(31-38); 84 pg cold standard (so in the source)
# VT027 antiserum [40] = experiment: as above
# VT027 antiserum [41] = experiment: RIA standard curve, tracer iodinated PACAP(31-38); 3 pg cold standard (so in the source)
# VT028 antiserum [42] = experiment: RIA standard curve, tracer iodinated PACAP(31-38); 4 pg cold standard
# VT026 antiserum [43] = experiment: as above
# VT027 antiserum [44] = experiment: as above
# VT026 antiserum [45] = experiment: RIA standard curve, tracer iodinated PACAP(31-38); 5 pg cold standard (so in the source)
# VT028 antiserum [46] = experiment: RIA standard curve, tracer iodinated PACAP(31-38); 32 pg cold standard
# VT026 antiserum [47] = experiment: as above
# VT027 antiserum [48] = experiment: as above
# VT028 antiserum [49] = experiment: RIA standard curve, tracer iodinated PACAP(31-38); 32 pg cold standard; period in the CPM read as thousands mark
# VT028 antiserum [50] = experiment: RIA standard curve, tracer iodinated PACAP(31-38); 1.020 pg cold standard as printed (read as 1,020); period in the CPM read as thousands mark
# VT028 antiserum [51] = experiment: RIA standard curve, tracer iodinated PACAP(31-38); 1 pg cold standard
# VT026 antiserum [52] = experiment: as above
# VT027 antiserum [53] = experiment: as above
binder,measurement,setting,value
"HSDGIFTDSYSRYRKQMAVKKYLAAVLGKRYKQRVKNK (peptide, UniProt P18509 132-169, looked up, not fully specified; ends and bridges not checked) [PACAP38]",BINDING,VT028 antiserum [1],0.227
same,BINDING,VT026 antiserum [2],0.271
same,CPM,VT026 antiserum [2],1740 cpm
same,BINDING,VT027 antiserum [3],0.147
same,CPM,VT027 antiserum [3],1140 cpm
same,CPM,VT028 antiserum [4],10400 cpm
same,CPM,VT028 antiserum [5],10100 cpm
same,CPM,VT028 antiserum [6],11200 cpm
same,BINDING,VT028 antiserum [7],0.88
same,BINDING,VT028 antiserum [8],0.914
same,BINDING,VT028 antiserum [9],0.133
same,BINDING,VT026 antiserum [10],0.142
same,CPM,VT026 antiserum [10],1030 cpm
same,BINDING,VT027 antiserum [11],0.0789
same,CPM,VT027 antiserum [11],875 cpm
same,BINDING,VT026 antiserum [12],0.0479
same,CPM,VT026 antiserum [12],515 cpm
same,BINDING,VT027 antiserum [13],0.0302
same,CPM,VT027 antiserum [13],490 cpm
same,assay midpoint,VT026 antiserum [14],20 fmol
same,CPM,VT028 antiserum [15],11300 cpm
same,DETECTION LIMIT,VT026 antiserum [16],5.38 pg
same,MIDPOINT [fmol],VT026 antiserum [16],20.3 fmol
same,MIDPOINT [pg],VT026 antiserum [16],92 pg
same,DETECTION LIMIT,VT028 antiserum [17],6.69 pg
same,MIDPOINT [fmol],VT028 antiserum [17],19.3 fmol
same,MIDPOINT [pg],VT028 antiserum [17],67 pg
same,DETECTION LIMIT,VT027 antiserum [18],2.19 pg
same,MIDPOINT [fmol],VT027 antiserum [18],92 fmol
same,MIDPOINT [pg],VT027 antiserum [18],41 pg
same,CPM,VT028 antiserum [19],2760 cpm
same,BINDING,VT028 antiserum [20],0.606
same,assay midpoint,[21],3.5 fmol
same,CPM,VT028 antiserum [22],7010 cpm
same,BINDING,VT028 antiserum [23],0.0685
same,CPM,VT028 antiserum [24],10800 cpm
same,BINDING,VT026 antiserum [25],0.0598
same,CPM,VT026 antiserum [25],800 cpm
same,BINDING,VT027 antiserum [26],0.0512
same,CPM,VT027 antiserum [26],858 cpm
same,BINDING,VT028 antiserum [27],0.367
same,BINDING,VT026 antiserum [28],0.427
same,CPM,VT026 antiserum [28],2800 cpm
same,assay midpoint,VT027 antiserum [29],9 fmol
same,BINDING,VT026 antiserum [30],0.859
same,CPM,VT026 antiserum [30],4980 cpm
same,BINDING,VT027 antiserum [31],0.715
same,CPM,VT027 antiserum [31],5900 cpm
same,BINDING,VT027 antiserum [32],0.245
same,CPM,VT027 antiserum [32],2190 cpm
same,BINDING,VT028 antiserum [33],0.981
same,BINDING,VT026 antiserum [34],0.961
same,CPM,VT026 antiserum [34],5540 cpm
same,BINDING,VT027 antiserum [35],0.931
same,CPM,VT027 antiserum [35],7620 cpm
same,CPM,VT028 antiserum [36],4350 cpm
same,CPM,VT028 antiserum [37],1730 cpm
same,BINDING,VT028 antiserum [38],0.0389
same,CPM,VT028 antiserum [38],684 cpm
same,BINDING,VT026 antiserum [39],0.502
same,CPM,VT026 antiserum [39],3450 cpm
same,BINDING,VT027 antiserum [40],0.411
same,CPM,VT027 antiserum [40],3500 cpm
same,BINDING,VT027 antiserum [41],0.835
same,CPM,VT027 antiserum [41],6850 cpm
same,BINDING,VT028 antiserum [42],0.946
same,BINDING,VT026 antiserum [43],0.957
same,CPM,VT026 antiserum [43],5510 cpm
same,BINDING,VT027 antiserum [44],0.589
same,CPM,VT027 antiserum [44],7280 cpm
same,BINDING,VT026 antiserum [45],0.945
same,CPM,VT026 antiserum [45],5450 cpm
same,BINDING,VT028 antiserum [46],0.77
same,BINDING,VT026 antiserum [47],0.728
same,CPM,VT026 antiserum [47],4250 cpm
same,BINDING,VT027 antiserum [48],0.584
same,CPM,VT027 antiserum [48],4860 cpm
same,CPM,VT028 antiserum [49],8840 cpm
same,CPM,VT028 antiserum [50],1020 cpm
same,BINDING,VT028 antiserum [51],0.993
same,BINDING,VT026 antiserum [52],0.973
same,CPM,VT026 antiserum [52],5600 cpm
same,BINDING,VT027 antiserum [53],0.978
same,CPM,VT027 antiserum [53],7960 cpm
